Reference: US20210244795A1

Tests used:
Assay in all cases: cell-based or functional assay
[1] = biological target: HIV envelope gp160 of 246F3 (pseudotyped virus) (HIV)
[2] = biological target: HIV envelope gp160 of 25710 (pseudotyped virus, Tier 2, clade C) (HIV)
[3] = biological target: HIV envelope gp160 of 398F1 (pseudotyped virus) (HIV)
[4] = biological target: HIV envelope gp160 of BJOX2000 (pseudotyped virus) (HIV)
[5] = biological target: HIV envelope gp160 of CE0217 (pseudotyped virus) (HIV)
[6] = biological target: HIV envelope gp160 of CE1176 (pseudotyped virus) (HIV)
[7] = biological target: HIV envelope gp160 of CH119 (pseudotyped virus) (HIV)
[8] = biological target: HIV envelope gp160 of CNE55 (pseudotyped virus) (HIV)
[9] = biological target: HIV envelope gp160 of CNE8 (pseudotyped virus) (HIV)
[10] = biological target: HIV envelope gp160 of TRO11 (pseudotyped virus) (HIV)
[11] = biological target: HIV envelope gp160 of X1632 (pseudotyped virus) (HIV)
[12] = biological target: HIV envelope gp160 of X2278 (pseudotyped virus) (HIV)
[13] = biological target: SIVmac239 envelope (pseudotyped virus, tier 3 isolate) (SIV)

Substance	IC50, pseudovirus neutralization, TZM-bl assay, mouse sera [1] [µg/mL]	IC50, neutralization of 25710 pseudovirus, TZM-bl assay, mouse sera [2] [µg/mL]	IC50, pseudovirus neutralization, TZM-bl assay, mouse sera [2] [µg/mL]	IC80, neutralization of 25710 pseudovirus, TZM-bl assay, mouse sera [2] [µg/mL]	IC50, pseudovirus neutralization, TZM-bl assay, mouse sera [3] [µg/mL]	IC50, pseudovirus neutralization, TZM-bl assay, mouse sera [4] [µg/mL]	IC50, pseudovirus neutralization, TZM-bl assay, mouse sera [5] [µg/mL]	IC50, neutralization of CE1176 pseudovirus, TZM-bl assay, mouse sera [6] [µg/mL]	IC50, pseudovirus neutralization, TZM-bl assay, mouse sera [6] [µg/mL]	IC50, pseudovirus neutralization, TZM-bl assay, mouse sera [7] [µg/mL]	IC50, pseudovirus neutralization, TZM-bl assay, mouse sera [8] [µg/mL]	IC50, pseudovirus neutralization, TZM-bl assay, mouse sera [9] [µg/mL]	IC50, pseudovirus neutralization, TZM-bl assay, mouse sera [10] [µg/mL]	IC50, pseudovirus neutralization, TZM-bl assay, mouse sera [11] [µg/mL]	IC50, pseudovirus neutralization, TZM-bl assay, mouse sera [12] [µg/mL]	IC50, pseudovirus neutralization, TZM-bl assay, mouse sera [13] [µg/mL]	fold drop in IC50 against ReCD4-Ig without sulfation [2] [fold]	fold drop in IC80 against ReCD4-Ig without sulfation [2] [fold]	fold drop in IC50 against ReCD4-Ig without sulfation [6] [fold]
ReCD4-Ig (expressed from p-ReCD4-Ig alone, no co-delivered sulfotransferase) (Fc fusion)	< 5	1.09	< 5	3.27	< 5	< 5	< 5	0.57	< 5	< 5	< 5	< 5	< 5	< 5	< 5	< 5	–	–	–
ReCD4-Ig sulfated by co-expressed IgE-TPST2 (Fc fusion)	< 5	0.16	< 5	1.35	< 5	< 5	< 5	0.05	< 5	< 5	< 5	< 5	< 5	< 5	< 5	–	6.8	2.4	10
